Assay results from patent US20260078185A1 (published 2026).
Where a chain is given by its changes, count along the chain named. Like-named read-outs stand apart in the source and are kept apart here.

T1: mouse VISTA recombinant protein (Sino Biological Inc., Cat. #51550-M08H), biotinylated (mouse, UniProt Q9D659 33-191, biotinylated using EZ-LINK NHS-PEG4 biotin)
T1 chain: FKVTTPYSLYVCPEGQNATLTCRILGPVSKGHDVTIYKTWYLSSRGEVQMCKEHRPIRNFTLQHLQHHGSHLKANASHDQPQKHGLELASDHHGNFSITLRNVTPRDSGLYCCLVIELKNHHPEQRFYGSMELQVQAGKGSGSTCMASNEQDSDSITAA

B1: 9F9 parental anti-VISTA antibody (VH0/VL0) (antibody, V domains shown)
VH: QVQFQQSGAELARPGASVKLSCKASGYTFTGYWMQWVKQRPGQGLEWIGAIYPGDGDTRYSQKFKGKVTLTADKSSSTAYMQLSSLASEDSAVYYCARRDYGAWFAYWGQGTLVTVSA
VL: DIKVTQSPSSMYASLGERVTITCKASQDINSYLSWFQQKPGKSPKTLIYRANRLVDGVPSRFSGSGSGQDYSLTISSLDYEDMGIYYCLQYDEFPYTFGGGTKLEIK
B2: 9F9 humanized anti-VISTA antibody VH9/VL9 (antibody, V domains shown)
VH: QVQFVQSGAEVKKPGSSVKVSCKASGYTFSGYWMQWVKQAPGQGLEWIGAIYPGDGDTRYSQKFKGKVTLTADESTSTAYMELSSLRSEDTAVYYCARRDYGAWFAYWGQGTLVTVSS
VL: DIKVTQSPSSLSASVGDRVTITCKASQDINSYLSWYQQKPGKAPKTLIYRANRLVDGVPSRFSGSGSGQDYTFTISSLQPEDIATYYCLQYDEFPYTFGQGTKVEIK
B3: 9F9-VH8/VL8 (antibody, V domains shown)
VH: B2 VH with S16A, S30T, E74K
VL: B2 VL with G41E, Q69T, Y71F, F73L, I83F
B4: 9F9 humanized anti-VISTA antibody VH7/VL7 (antibody, V domains shown)
VH: B2 VH with S16A, S30T, G44R, E74T, T76A
VL: B2 VL with D70E, F73L, I83F
B5: 20E4-VH1/VL1 (antibody, V domains shown)
VH: QVQLVQSGAEVKKPGASVKVSCKASGYTFSSSWVEWVRQAPGQGLEWMGEIFPGSGSTHYNEKFKGRVTMTRDTSISTAYMELSRLRSDDTAVYYCARRPPGWFFDVWGQGTTVTVSS
VL: DIQMTQSPSSLSASVGDRVTITCKASQDVSTDVAWYQQKPGKAPKLLIYSASYRYTGVPSRFSGSGSGTDFTLTISSLQPEDFATYYCQQHYSTPWTFGGGTKVEIK
B6: 20E4-VH4/VL4 (antibody, V domains shown)
VH: B5 VH with S30T, I76T, A79V, R85S, D89E, T113M
VL: DIVMTQSPDSLAVSLGERATINCKASQDVSTDVAWYQQKPGQPPKLLIYSASYRYTGVPDRFSGSGSGTDFTLTISSLQAEDVAVYYCQQHYSTPWTFGGGTKVEIK
B7: 20E4-VH3/VL3 (antibody, V domains shown)
VH: B5 VH with K12M, V20I, S25T, A40R, M48I, R67K, V68A, R72A, Q110A
VL: B5 VL with Q3V, L73F, L78V, F83L, T85V, V104L
B8: 9F9 humanized anti-VISTA antibody VH15/VL15 (antibody, V domains shown)
VH: QVQLVQSGAEVMKPGASVKLSCKASGYTFTGYWMQWVKQRPGQGLEWIGAIYPGDGDTRYSQKFKGKATMTADTSISTAYMELSRLRSDDSAVYYCARRDYGAWFAYWGAGTTVTVSS
VL: DIVMTQSPSSLSASVGERVTITCKASQDINSYLSWFQQKPGKAPKTLIYRANRLVDGVPSRFSGSGSGTDFTFTISSVQPEDLAIYYCLQYDEFPYTFGGGTKLEIK
B9: 9F9 humanized anti-VISTA antibody VH14/VL15 (antibody, V domains shown)
VH: B8 VH with L20I, K38R, S91T
VL: B8 VL
B10: 20E4 parental anti-VISTA antibody (VH0/VL0) (antibody, V domains shown)
VH: QVQLQQSGAELMKPGASVKISCKATGYTFSSSWVEWVRQRPGHGLEWIGEIFPGSGSTHYNEKFKGKATFTADTSSNTAYLQLSSLTSDDSAVYYCARRPPGWFFDVWGAGTTVTVSS
VL: DIVMTQSHKFMSTSVGDRVSITCKASQDVSTDVAWYQQKPGQSPKLLIYSASYRYTGVPDRFTGSGSGTDFTFTISSVQAEDLAVYYCQQHYSTPWTFGGGTKLEIK

Experiments:
[1] = target: T2, Human VISTA recombinant protein (Sino Biological Inc., Cat. #13482-H08H), biotinylated (UniProt Q9H7M9 33-194, biotinylated using EZ-LINK NHS-PEG4 biotin); assay: Octet BLI
T2 sequence (Q9H7M9 33-194): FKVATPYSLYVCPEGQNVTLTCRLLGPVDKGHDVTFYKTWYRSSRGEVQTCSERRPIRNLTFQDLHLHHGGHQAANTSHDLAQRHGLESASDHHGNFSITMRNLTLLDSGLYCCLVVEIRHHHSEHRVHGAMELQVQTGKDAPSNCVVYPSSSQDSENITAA

[2] = target: T2, Human VISTA recombinant protein (Sino …); assay: Octet BLI; remark: listed apart in the source
[3] = target: T1, mouse VISTA recombinant protein (Sino …); assay: Octet (BLI)
[4] = target: T1, mouse VISTA recombinant protein (Sino …); assay: Octet (BLI)
[5] = target: T2, Human VISTA recombinant protein (Sino …); assay: Octet BLI; remark: listed apart in the source

Binder | Kd [1] [nM] | Kd [2] [nM] | Kd [3] [nM] | Kd [4] [nM] | Kd [5] [nM]
B1 | 8.65 | 9.45 | 12.2 | 5.03 | 
B2 | 37.7 | 26.6 | 23.9 | 607 | 
B3 | 36.6 |  |  | 336 | 
B4 | 56.7 |  |  | 866 | 
B5 |  |  |  |  | 3.54
B6 |  |  |  |  | 6.22
B7 |  |  |  |  | 3.09
B8 |  | 24.4 | 20.8 |  | 
B9 |  | 20.3 | 17.5 |  | 
B10 |  |  |  |  | 4.37
